Here are results for two substances from paper PMC3785576.

For the assay, the target named is Bovine dermal collagen type I (bovine) (UniProt P02453). Description: ELISA.
Sequence of UniProt P02453 (P02453 162-1217, chain 1 of 2): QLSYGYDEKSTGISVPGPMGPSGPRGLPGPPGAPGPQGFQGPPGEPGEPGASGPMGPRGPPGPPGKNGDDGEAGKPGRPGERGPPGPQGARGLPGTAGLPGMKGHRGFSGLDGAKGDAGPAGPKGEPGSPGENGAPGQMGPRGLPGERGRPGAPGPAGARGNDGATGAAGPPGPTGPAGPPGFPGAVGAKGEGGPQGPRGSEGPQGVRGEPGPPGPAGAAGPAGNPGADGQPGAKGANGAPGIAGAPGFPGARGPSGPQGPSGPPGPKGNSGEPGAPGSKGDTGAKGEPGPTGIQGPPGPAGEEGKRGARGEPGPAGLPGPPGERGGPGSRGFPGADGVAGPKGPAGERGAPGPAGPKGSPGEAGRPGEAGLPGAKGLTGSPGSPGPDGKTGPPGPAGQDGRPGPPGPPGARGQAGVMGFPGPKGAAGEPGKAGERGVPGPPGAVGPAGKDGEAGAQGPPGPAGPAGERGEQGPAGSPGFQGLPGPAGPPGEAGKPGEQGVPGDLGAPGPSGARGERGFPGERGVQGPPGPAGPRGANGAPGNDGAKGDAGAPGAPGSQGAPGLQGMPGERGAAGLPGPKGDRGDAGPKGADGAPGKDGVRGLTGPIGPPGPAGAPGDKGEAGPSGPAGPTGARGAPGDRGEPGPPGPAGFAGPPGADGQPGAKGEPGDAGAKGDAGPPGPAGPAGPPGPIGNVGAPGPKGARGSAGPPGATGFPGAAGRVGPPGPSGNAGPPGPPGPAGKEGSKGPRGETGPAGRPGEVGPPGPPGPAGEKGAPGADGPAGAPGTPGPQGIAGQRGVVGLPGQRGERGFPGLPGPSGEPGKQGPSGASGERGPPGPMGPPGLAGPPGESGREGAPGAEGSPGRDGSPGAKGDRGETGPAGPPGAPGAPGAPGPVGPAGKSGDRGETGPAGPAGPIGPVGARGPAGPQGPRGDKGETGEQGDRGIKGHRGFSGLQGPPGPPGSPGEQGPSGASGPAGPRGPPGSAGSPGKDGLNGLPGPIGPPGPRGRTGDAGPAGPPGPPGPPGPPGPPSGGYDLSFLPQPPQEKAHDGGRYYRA
Sequence of UniProt P02453 (P02465 80-1117, chain 2 of 2, further chain): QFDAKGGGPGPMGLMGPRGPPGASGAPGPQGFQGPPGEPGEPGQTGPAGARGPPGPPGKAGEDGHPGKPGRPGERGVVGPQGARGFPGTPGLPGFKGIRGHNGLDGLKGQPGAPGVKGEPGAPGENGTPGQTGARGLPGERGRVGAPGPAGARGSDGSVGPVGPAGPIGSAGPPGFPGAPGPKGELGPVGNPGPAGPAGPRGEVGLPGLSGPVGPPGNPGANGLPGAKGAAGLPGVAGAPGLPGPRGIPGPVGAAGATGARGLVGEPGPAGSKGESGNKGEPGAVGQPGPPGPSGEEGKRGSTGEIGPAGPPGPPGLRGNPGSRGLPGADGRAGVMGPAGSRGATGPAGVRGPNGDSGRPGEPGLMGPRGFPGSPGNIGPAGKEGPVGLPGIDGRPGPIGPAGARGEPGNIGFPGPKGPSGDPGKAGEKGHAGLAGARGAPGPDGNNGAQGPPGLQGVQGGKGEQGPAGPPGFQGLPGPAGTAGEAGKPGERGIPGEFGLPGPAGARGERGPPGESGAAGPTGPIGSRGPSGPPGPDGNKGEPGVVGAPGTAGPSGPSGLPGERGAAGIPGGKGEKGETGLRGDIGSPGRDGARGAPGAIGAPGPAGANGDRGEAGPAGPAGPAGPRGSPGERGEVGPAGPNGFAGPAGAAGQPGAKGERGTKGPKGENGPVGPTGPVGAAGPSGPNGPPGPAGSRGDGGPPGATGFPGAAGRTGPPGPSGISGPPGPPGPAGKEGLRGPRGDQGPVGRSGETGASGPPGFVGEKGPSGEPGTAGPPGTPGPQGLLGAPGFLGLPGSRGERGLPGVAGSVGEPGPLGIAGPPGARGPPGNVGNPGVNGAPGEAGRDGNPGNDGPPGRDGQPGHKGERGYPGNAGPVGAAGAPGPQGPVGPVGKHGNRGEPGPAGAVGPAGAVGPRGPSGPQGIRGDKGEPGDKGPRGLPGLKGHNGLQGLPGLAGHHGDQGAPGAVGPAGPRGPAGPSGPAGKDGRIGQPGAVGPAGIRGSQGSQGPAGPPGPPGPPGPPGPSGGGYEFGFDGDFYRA

As to “Antibody (anti-Fc) induced oligomers of DDR1-Fc (from UniProt Q08345 21-417) (complex)”, the 50% inhibitory concentration (IC50) amounted to 2.5 nM. As to “Fc-tagged extracellular domain of human DDR1 (dimeric DDR1-Fc) (from UniProt Q08345 21-417) (Fc fusion)”, the IC50 was 7.85 nM.
